Source: patent US20250002564A1

Tests used:
mouse FcRn (mouse) [1] = target: mouse FcRn (mouse) (UniProt Q61559); assay: pH 5.6
mouse FcRn (mouse) [2] = target: mouse FcRn (mouse) (UniProt Q61559)
mouse FcγRI (mouse) = mouse FcγRI (mouse) (UniProt P26151)
Chain of mouse FcγRI (mouse) (P26151 25-297 limits assumed): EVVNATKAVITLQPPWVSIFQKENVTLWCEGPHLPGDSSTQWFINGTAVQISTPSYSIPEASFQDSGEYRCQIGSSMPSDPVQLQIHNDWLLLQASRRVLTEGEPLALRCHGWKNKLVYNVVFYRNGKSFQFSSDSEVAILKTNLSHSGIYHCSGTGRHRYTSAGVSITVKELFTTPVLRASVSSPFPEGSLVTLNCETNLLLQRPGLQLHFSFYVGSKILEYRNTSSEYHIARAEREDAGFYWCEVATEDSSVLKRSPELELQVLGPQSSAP

Chain of mouse FcRn (mouse) (Q61559 22-297 limits assumed, chain 1 of 2): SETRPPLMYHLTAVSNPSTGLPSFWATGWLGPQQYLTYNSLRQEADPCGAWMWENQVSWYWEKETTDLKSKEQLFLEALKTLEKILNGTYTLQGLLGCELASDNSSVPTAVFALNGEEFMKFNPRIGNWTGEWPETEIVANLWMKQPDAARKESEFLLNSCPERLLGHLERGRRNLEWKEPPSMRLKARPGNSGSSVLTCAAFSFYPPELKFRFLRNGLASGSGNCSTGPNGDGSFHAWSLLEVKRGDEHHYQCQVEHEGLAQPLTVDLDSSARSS
Chain of mouse FcRn (mouse) (chain, as listed by the source limits assumed, chain 2 of 2): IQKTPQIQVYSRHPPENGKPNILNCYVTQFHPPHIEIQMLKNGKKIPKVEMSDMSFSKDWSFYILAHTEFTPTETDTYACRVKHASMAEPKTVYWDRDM

Substance	Kd (mouse FcRn (mouse) [1]) [pM]	koff (mouse FcRn (mouse) [1]) [s⁻¹]	kon (mouse FcRn (mouse) [2]) [M⁻¹ s⁻¹]	Kd (mouse FcγRI (mouse)) [pM]	koff (mouse FcγRI (mouse)) [s⁻¹]	kon (mouse FcγRI (mouse)) [M⁻¹ s⁻¹]
mouse surrogate Multabody with LALAP Fc	< 1	< 1e-07	2.4e+06			
mouse surrogate Multabody (HD37 IgG2a scFab and scFc on mouse apoferritin light chain), wild-type Fc	< 1	< 1e-07	682000	< 1	< 1e-07	939000
